Data: paper PMC12700824 (Nature Structural & Molecular Biology, 2025)

Tests used:
[1] = molecular target: the molecule itself; assay: dynamic light scattering (DLS); FAM118B24–334 WT at 10 µM in PBS pH 7.4, 20 °C
[2] = molecular target: the molecule itself; assay: SEC; analytical SEC, Superdex Increase 10/300 GL, 50 mM Tris pH 8, 200 mM NaCl, 0.5 mM TCEP; injection concentrations up to 20 µM (mutant mixture: 10 µM each); sizes are coarse estimates from globular standards
FAM118B24–334-F122R = molecular target: T1, FAM118B24–334-F122R (human, UniProt Q9BPY3 24-334, F122R); assay: ITC; 25 °C, PBS; FAM118B24–334-L32R in the syringe at 500 µM titrated into FAM118B24–334-F122R in the cell at 50 µM; settings: both partners purified
T1 construct: also called head-surface mutant; not shown: His6, C-terminal, kept

Row | Binder | stoichiometry N [1] [subunits] | stoichiometry N [2] [protomers] | stoichiometry N (FAM118B24–334-F122R)
1 | human FAM118B residues 24-334, C-terminally His-tagged, wild type (domain or fragment, UniProt Q9BPY3 24-334, looked up, not shown: His6, C-terminal, kept) PTKKPRKLLPSLKTKKPRELVLVIGTGISAAVAPQVPALKSWKGLIQALLDAAIDFDLLEDEESKKFQKCLHEDKNLVHVAHDLIQKLSPRTSNVRSTFFKDCLYEVFDDLESKMEDSGKQLLQSVLHLMENGALVLTTNFDNLLELYAADQGKQLESLDLTDEKKVLEWAQEKRKLSVLHIHGVYTNPSGIVLHPAGYQNVLRNTEVMREIQKLYENKSFLFLGCGWTVDDTTFQALFLEAVKHKSDLEHFMLVRRGDVDEFKKLRENMLDKGIKVISYGDDYADLPEYFKRLTCEISTRGTSAGMVREG | < 10 | > 8 | –
2 | FAM118B24–334-L32R (domain or fragment, human, UniProt Q9BPY3 24-334, looked up, also called tail-surface mutant; not shown: His6, C-terminal, kept) PTKKPRKLRPSLKTKKPRELVLVIGTGISAAVAPQVPALKSWKGLIQALLDAAIDFDLLEDEESKKFQKCLHEDKNLVHVAHDLIQKLSPRTSNVRSTFFKDCLYEVFDDLESKMEDSGKQLLQSVLHLMENGALVLTTNFDNLLELYAADQGKQLESLDLTDEKKVLEWAQEKRKLSVLHIHGVYTNPSGIVLHPAGYQNVLRNTEVMREIQKLYENKSFLFLGCGWTVDDTTFQALFLEAVKHKSDLEHFMLVRRGDVDEFKKLRENMLDKGIKVISYGDDYADLPEYFKRLTCEISTRGTSAGMVREG | – | – | ~1
